In the supplement of paper PMC7877785:
± gives the uncertainty stated by the source.

Assay: self-splicing fitness, log relative to wild type (ln ratio); higher = more splicing; Tetrahymena group I intron in knt gene, E. coli kanamycin selection, DiMSum; sequences stand for … in CUCUCU…GGAGGGAAAAGUUAUCAGGCAUGCACCUGGUAGCUAGUCUUUAAACCAAUAGAUUGCAUCGGUUUAAAAGGCAAGACCGUCAAAUUGCGGGAAAGGGGUCAACAGCCGUUCAGUACCAAGUCUCAGGGGAAACUUUGAGAUGGCCUUGCAAAGGGUAUGGUAAUAAGCUGACGGACAUGGUCCUAACCACGCAGCCAAGUCCUAAGUCAACAGAUCUUCUGUUGAUAUGGAUGCAGUUCACAGACUAAAUGUCGGUCGGGGAAGAUGUAUUCUUCUCAUAAGAUAUAGUCGGACCUCUCCUUAAUGGGAGCUAGCGGAUGAAGUGAUGCAACACUGGAGCCGCUGGGAACUAAUUUGUAUGCGAAAGUAUAUUGAUUAGUUUUGGAGUACUCGUGGUCG
In short: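 Colonies from six replicate transformations of E. coli BL21(DE3) were pooled and amplicon-sequenced on an Illumina HiSeq 2500. The library placed an intron with all eight P1ex-region nucleotides randomised inside the knt kanamycin-resistance gene on pET-22b(+), and cells grew overnight at 37°C or 30°C on LB agar with or without 25 μg/mL kanamycin (plus 100 μg/mL carbenicillin, 50 μM IPTG, 0.2% rhamnose). Fitness is the DiMSum error-weighted combination of wild-type-normalised replicate fold changes, kanamycin versus none.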

| Sequence | self-splicing fitness (ln) (30 °C) | self-splicing fitness (ln) (37 °C) |
| --- | --- | --- |
| UGAUAGCAAUAUUACGGGAC | -4.2 ± 0.31 | -2.54 ± 0.25 |
| UGAUAGCAAUAUUACGGUCA | -0.441 ± 0.073 | -0.29 ± 0.071 |
| UGAUAGCAAUAUUACGGUUU | -2.91 ± 0.097 | -1.38 ± 0.11 |
| UGAUAGCAAUAUUACGUACA | -0.211 ± 0.083 | -0.0617 ± 0.12 |
| UGAUAGCAAUAUUACGUGAU | -3.09 ± 0.11 | -2.43 ± 0.17 |
| UGAUAGCAAUAUUACGUUCC | -1.67 ± 0.24 | -1.1 ± 0.4 |
| UGCAAGCAAUAUUACGAGUC | -2.87 ± 0.15 | -1.83 ± 0.14 |
| UGCAAGCAAUAUUACGAGUU | -1.88 ± 0.084 | -0.67 ± 0.098 |
| UGCAAGCAAUAUUACGCAGG | -4.36 ± 0.33 | -3.48 ± 0.37 |
| UGCAAGCAAUAUUACGCAGU | -3.63 ± 0.3 | -3.35 ± 0.39 |
| UGCAAGCAAUAUUACGCAUG | -3.63 ± 0.21 | -2.32 ± 0.29 |
| UGCAAGCAAUAUUACGCCGG | -2.06 ± 0.13 | -0.615 ± 0.17 |
| UGCAAGCAAUAUUACGCCUC | -1.98 ± 0.46 | -1.23 ± 0.23 |
| UGCAAGCAAUAUUACGCGAA | -2.03 ± 0.1 | -0.581 ± 0.083 |
| UGCAAGCAAUAUUACGCGGC | -2.85 ± 0.17 | -2.3 ± 0.2 |
| UGCAAGCAAUAUUACGCUGA | -2.78 ± 0.12 | -0.102 ± 0.09 |
| UGCAAGCAAUAUUACGCUGG | -4 ± 0.35 | -3.17 ± 0.24 |
| UGCAAGCAAUAUUACGGACG | -0.345 ± 0.068 | -0.0664 ± 0.087 |
| UGCAAGCAAUAUUACGGCCU | -0.521 ± 0.059 | -0.286 ± 0.079 |
| UGCAAGCAAUAUUACGGCGC | -3.27 ± 0.18 | -2.84 ± 0.31 |
| UGCAAGCAAUAUUACGGCGU | -1.24 ± 0.071 | -0.6 ± 0.091 |
| UGCAAGCAAUAUUACGGUCG | -0.179 ± 0.073 | 0.595 ± 0.088 |
| UGCAAGCAAUAUUACGUACG | -0.89 ± 0.12 | -0.478 ± 0.1 |
| UGCAAGCAAUAUUACGUCAU | -3.29 ± 0.13 | -2.17 ± 0.14 |
| UGCAAGCAAUAUUACGUCCU | -0.656 ± 0.094 | -0.908 ± 0.098 |
| UGCAAGCAAUAUUACGUGAC | -2.65 ± 0.39 | -2.19 ± 0.28 |
| UGCAAGCAAUAUUACGUGGC | -2.62 ± 0.16 | -1.68 ± 0.2 |

| Sequence | self-splicing fitness (ln) (30 °C) | self-splicing fitness (ln) (37 °C) |
| --- | --- | --- |
| UGCCAGCAAUAUUACGAACG | 0.252 ± 0.055 | 0.281 ± 0.067 |
| UGCCAGCAAUAUUACGAAUC | -4.4 ± 0.46 |  |
| UGCCAGCAAUAUUACGACCG | -0.712 ± 0.1 | 0.509 ± 0.14 |
| UGCCAGCAAUAUUACGAGGG | -2.61 ± 0.18 | -1.94 ± 0.19 |
| UGCCAGCAAUAUUACGAGGU | -3.06 ± 0.13 | -3.99 ± 0.3 |
| UGCCAGCAAUAUUACGAUCU | -2.48 ± 0.1 | -1.44 ± 0.1 |
| UGCCAGCAAUAUUACGAUGU | -4.66 ± 0.26 | -1.34 ± 0.15 |
| UGCCAGCAAUAUUACGCAAG | -3.07 ± 0.24 | -3.65 ± 0.46 |
| UGCCAGCAAUAUUACGCCCU | -1.49 ± 0.11 | -0.167 ± 0.13 |
| UGCCAGCAAUAUUACGCCGC | -2.25 ± 0.23 | -1.49 ± 0.22 |
| UGCCAGCAAUAUUACGCUGU | -3.59 ± 0.37 | -1.37 ± 0.17 |
| UGCCAGCAAUAUUACGGAGA | -1.47 ± 0.096 | -0.852 ± 0.098 |
| UGCCAGCAAUAUUACGGAGC | -3.73 ± 0.4 | -3.1 ± 0.35 |
| UGCCAGCAAUAUUACGGAGG | -3.51 ± 0.17 | -1.83 ± 0.17 |
| UGCCAGCAAUAUUACGGCAA | -1.4 ± 0.079 | -1.52 ± 0.085 |
| UGCCAGCAAUAUUACGGCGU | -3.04 ± 0.16 | -3.16 ± 0.27 |
| UGCCAGCAAUAUUACGGUAU | -3.55 ± 0.16 | -2 ± 0.19 |
| UGCCAGCAAUAUUACGGUCU | -0.21 ± 0.059 | 0.456 ± 0.07 |
| UGCCAGCAAUAUUACGUACC | -3.09 ± 0.22 | -1.98 ± 0.21 |
| UGCCAGCAAUAUUACGUAUG | -1.2 ± 0.069 | -0.775 ± 0.095 |
| UGCCAGCAAUAUUACGUCAA | -1.93 ± 0.11 | -1.08 ± 0.093 |
| UGCCAGCAAUAUUACGUCGA | -1.17 ± 0.088 | -0.949 ± 0.11 |
| UGCCAGCAAUAUUACGUGGC | -3.24 ± 0.19 | -3.19 ± 0.25 |
| UGCCAGCAAUAUUACGUGGU | -3.85 ± 0.21 | -2.83 ± 0.19 |
| UGCGAGCAAUAUUACGAAUC | -4.3 ± 0.43 | -2.41 ± 0.23 |
| UGCGAGCAAUAUUACGACCA | -0.371 ± 0.18 |  |
| UGCGAGCAAUAUUACGACUG | -0.639 ± 0.17 | -0.0696 ± 0.2 |

| Sequence | self-splicing fitness (ln) (30 °C) | self-splicing fitness (ln) (37 °C) |
| --- | --- | --- |
| UGCGAGCAAUAUUACGAGAU | -2.4 ± 0.33 | -3.21 ± 0.35 |
| UGCGAGCAAUAUUACGAGGA | -3.56 ± 0.18 | -2.75 ± 0.18 |
| UGCGAGCAAUAUUACGAUGU | -3.53 ± 0.13 | -2.97 ± 0.18 |
| UGCGAGCAAUAUUACGAUUG | -2.09 ± 0.1 | -1.35 ± 0.16 |
| UGCGAGCAAUAUUACGCAAU | -3.57 ± 0.18 | -2.72 ± 0.14 |
| UGCGAGCAAUAUUACGCACU | -1.68 ± 0.27 | -1.66 ± 0.24 |
| UGCGAGCAAUAUUACGGACU |  | -1.12 ± 0.34 |
| UGCGAGCAAUAUUACGGAGU |  | -2.08 ± 0.3 |
| UGCGAGCAAUAUUACGGGGC | -3.09 ± 0.27 |  |
| UGCGAGCAAUAUUACGGUCA | -0.764 ± 0.071 | -0.397 ± 0.077 |
| UGCGAGCAAUAUUACGGUUC | -2.75 ± 0.28 |  |
| UGCGAGCAAUAUUACGUCAU | -4.84 ± 0.46 | -2.95 ± 0.23 |
| UGCGAGCAAUAUUACGUCGA | -2.22 ± 0.16 | -1.85 ± 0.2 |
| UGCGAGCAAUAUUACGUCGC | -1.88 ± 0.15 | -2.32 ± 0.23 |
| UGCGAGCAAUAUUACGUGAA |  | -2.32 ± 0.16 |
| UGCGAGCAAUAUUACGUGCG | -2.56 ± 0.27 | -0.202 ± 0.3 |
| UGCGAGCAAUAUUACGUUAU |  | -3.11 ± 0.4 |
| UGCGAGCAAUAUUACGUUGC |  | -1.17 ± 0.33 |
| UGCUAGCAAUAUUACGAAAC | -2.87 ± 0.33 | -2.17 ± 0.31 |
| UGCUAGCAAUAUUACGACAC | -3.83 ± 0.22 | -2.11 ± 0.16 |
| UGCUAGCAAUAUUACGAGCU | -0.987 ± 0.068 | -0.622 ± 0.082 |
| UGCUAGCAAUAUUACGAGUC | -3.43 ± 0.26 | -2.5 ± 0.28 |
| UGCUAGCAAUAUUACGAUUU | -2.4 ± 0.18 | -1.1 ± 0.16 |
| UGCUAGCAAUAUUACGCCUG | -0.427 ± 0.18 | 0.294 ± 0.2 |
| UGCUAGCAAUAUUACGCGUU | -1.7 ± 0.14 | -0.563 ± 0.14 |
